ChEMBL document CHEMBL1143427, “Interactions of ceftobiprole with beta-lactamases from molecular classes A to D” (Antimicrob Agents Chemother, 2007)

Key:
[1] = substrate: CO/N=C(\C(=O)N[C@@H]1C(=O)N2C(C(=O)O)=C(COC(C)=O)CS[C@H]12)c1csc(N)n1; conditions: Escherichia coli
[2] = substrate: CO/N=C(\C(=O)N[C@@H]1C(=O)N2C(C(=O)[O-])=C(C[N+]3(C)CCCC3)CS[C@H]12)c1csc(N)n1; conditions: Escherichia coli
[3] = substrate: CC(C)(O/N=C(\C(=O)N[C@@H]1C(=O)N2C(C(=O)[O-])=C(C[n+]3ccccc3)CS[C@H]12)c1csc(N)n1)C(=O)O; conditions: Escherichia coli
[4] = substrate: CC1(C)S[C@@H]2[C@H](NC(=O)Cc3ccccc3)C(=O)N2[C@H]1C(=O)O; conditions: Escherichia coli
[5] = substrate: Nc1nc(/C(=N/O)C(=O)N[C@@H]2C(=O)N3C(C(=O)O)=C(/C=C4\CCN([C@@H]5CCNC5)C4=O)CS[C@H]23)ns1; conditions: Escherichia coli
[6] = substrate: O=C(Cc1cccs1)N[C@@H]1C(=O)N2C(C(=O)[O-])=C(C[n+]3ccccc3)CS[C@H]12; conditions: Escherichia coli
[7] = substrate: CO/N=C(\C(=O)N[C@@H]1C(=O)N2C(C(=O)O)=C(COC(C)=O)CS[C@H]12)c1csc(N)n1; test: (§1) Activity of Escherichia coli CTX-M-15 assessed as drug hydrolysis by spectrophotometry
[8] = substrate: CO/N=C(\C(=O)N[C@@H]1C(=O)N2C(C(=O)[O-])=C(C[N+]3(C)CCCC3)CS[C@H]12)c1csc(N)n1; test: as §1
[9] = substrate: CC(C)(O/N=C(\C(=O)N[C@@H]1C(=O)N2C(C(=O)[O-])=C(C[n+]3ccccc3)CS[C@H]12)c1csc(N)n1)C(=O)O; test: as §1
[10] = substrate: CC1(C)S[C@@H]2[C@H](NC(=O)Cc3ccccc3)C(=O)N2[C@H]1C(=O)O; test: as §1
[11] = substrate: Nc1nc(/C(=N/O)C(=O)N[C@@H]2C(=O)N3C(C(=O)O)=C(/C=C4\CCN([C@@H]5CCNC5)C4=O)CS[C@H]23)ns1; test: as §1
[12] = substrate: O=C(Cc1cccs1)N[C@@H]1C(=O)N2C(C(=O)[O-])=C(C[n+]3ccccc3)CS[C@H]12; test: as §1
[13] = substrate: CO/N=C(\C(=O)N[C@@H]1C(=O)N2C(C(=O)[O-])=C(C[N+]3(C)CCCC3)CS[C@H]12)c1csc(N)n1; test: (§2) Activity of Serratia marcescens SME3 assessed as drug hydrolysis by spectrophotometry
[14] = substrate: CC(C)(O/N=C(\C(=O)N[C@@H]1C(=O)N2C(C(=O)[O-])=C(C[n+]3ccccc3)CS[C@H]12)c1csc(N)n1)C(=O)O; test: as §2
[15] = substrate: CC1(C)S[C@@H]2[C@H](NC(=O)Cc3ccccc3)C(=O)N2[C@H]1C(=O)O; test: as §2
[16] = substrate: Nc1nc(/C(=N/O)C(=O)N[C@@H]2C(=O)N3C(C(=O)O)=C(/C=C4\CCN([C@@H]5CCNC5)C4=O)CS[C@H]23)ns1; test: as §2
[17] = substrate: O=C(Cc1cccs1)N[C@@H]1C(=O)N2C(C(=O)[O-])=C(C[n+]3ccccc3)CS[C@H]12; test: as §2
[18] = substrate: CO/N=C(\C(=O)N[C@@H]1C(=O)N2C(C(=O)[O-])=C(C[N+]3(C)CCCC3)CS[C@H]12)c1csc(N)n1; test: (§3) Ratio of Kcat to Km of Serratia marcescens SME3 assessed as drug hydrolysis by spectrophotometry
[19] = substrate: CC(C)(O/N=C(\C(=O)N[C@@H]1C(=O)N2C(C(=O)[O-])=C(C[n+]3ccccc3)CS[C@H]12)c1csc(N)n1)C(=O)O; test: as §3
[20] = substrate: CC1(C)S[C@@H]2[C@H](NC(=O)Cc3ccccc3)C(=O)N2[C@H]1C(=O)O; test: as §3
[21] = substrate: Nc1nc(/C(=N/O)C(=O)N[C@@H]2C(=O)N3C(C(=O)O)=C(/C=C4\CCN([C@@H]5CCNC5)C4=O)CS[C@H]23)ns1; test: as §3
[22] = substrate: O=C(Cc1cccs1)N[C@@H]1C(=O)N2C(C(=O)[O-])=C(C[n+]3ccccc3)CS[C@H]12; test: as §3
[23] = substrate: CO/N=C(\C(=O)N[C@@H]1C(=O)N2C(C(=O)[O-])=C(C[N+]3(C)CCCC3)CS[C@H]12)c1csc(N)n1; test: (§4) Activity of Providencia stuartii AmpC assessed as drug hydrolysis by spectrophotometry
[24] = substrate: CC(C)(O/N=C(\C(=O)N[C@@H]1C(=O)N2C(C(=O)[O-])=C(C[n+]3ccccc3)CS[C@H]12)c1csc(N)n1)C(=O)O; test: as §4
[25] = substrate: CC1(C)S[C@@H]2[C@H](NC(=O)Cc3ccccc3)C(=O)N2[C@H]1C(=O)O; test: as §4
[26] = substrate: Nc1nc(/C(=N/O)C(=O)N[C@@H]2C(=O)N3C(C(=O)O)=C(/C=C4\CCN([C@@H]5CCNC5)C4=O)CS[C@H]23)ns1; test: as §4
[27] = substrate: O=C(Cc1cccs1)N[C@@H]1C(=O)N2C(C(=O)[O-])=C(C[n+]3ccccc3)CS[C@H]12; test: as §4
[28] = substrate: CO/N=C(\C(=O)N[C@@H]1C(=O)N2C(C(=O)[O-])=C(C[N+]3(C)CCCC3)CS[C@H]12)c1csc(N)n1; test: (§5) Ratio of Kcat to Km of Providencia stuartii AmpC assessed as drug hydrolysis by spectrophotometry
[29] = substrate: CC(C)(O/N=C(\C(=O)N[C@@H]1C(=O)N2C(C(=O)[O-])=C(C[n+]3ccccc3)CS[C@H]12)c1csc(N)n1)C(=O)O; test: as §5
[30] = substrate: CC1(C)S[C@@H]2[C@H](NC(=O)Cc3ccccc3)C(=O)N2[C@H]1C(=O)O; test: as §5
[31] = substrate: Nc1nc(/C(=N/O)C(=O)N[C@@H]2C(=O)N3C(C(=O)O)=C(/C=C4\CCN([C@@H]5CCNC5)C4=O)CS[C@H]23)ns1; test: as §5
[32] = substrate: O=C(Cc1cccs1)N[C@@H]1C(=O)N2C(C(=O)[O-])=C(C[n+]3ccccc3)CS[C@H]12; test: as §5

B1: Beta-lactamase CTX-M (Escherichia coli), Q9EXV5 (protein)
chain: MVKKSLRQFTLMATATVTLLLGSVPLYAQTADVQQKLAELERQSGGRLGVALINTADNSQILYRADERFAMCSTSKVMAAAAVLKKSESEPNLLNQRVEIKKSDLVNYNPIAEKHVNGTMSLAELSAAALQYSDNVAMNKLIAHVGGPASVTAFARQLGDETFRLDRTEPTLNTAIPGDPRDTTSPRAMAQTLRNLTLGKALGDSQRAQLVTWMKGNTTGAASIQAGLPASWVVGDKTGSGGYGTTNDIAVIWPKDRAPLILVTYFTQPQPKAESRRDVLASAAKIVTDGL
- kcat/Km [1]: 6.9e+06 M⁻¹ s⁻¹
- kcat/Km [2]: 250000 M⁻¹ s⁻¹
- kcat/Km [3]: 18000 M⁻¹ s⁻¹
- kcat/Km [4]: 5.4e+06 M⁻¹ s⁻¹
- kcat/Km [5]: 1.4e+07 M⁻¹ s⁻¹
- kcat/Km [6]: 4.9e+06 M⁻¹ s⁻¹
- Km [7]: 26 µM
- kcat [7]: 180 s⁻¹
- Km [8]: 180 µM
- kcat [8]: 45 s⁻¹
- Km [9]: 240 µM
- kcat [9]: 4.4 s⁻¹
- Km [10]: 8.7 µM
- kcat [10]: 47 s⁻¹
- Km [11]: 19 µM
- kcat [11]: 270 s⁻¹
- Km [12]: 39 µM
- kcat [12]: 190 s⁻¹

B2: Carbapenem-hydrolyzing beta-lactamase SME-3 (Serratia marcescens), Q6PRG8 (protein)
chain: MSNKVNFKTASFLFSVCLALSAFNAHANKSDAAAKQIKKLEEDFDGRIGVFAIDTGSGNTFGYRSDERFPLCSSFKGFLAAAVLERVQQKKLDINQKVKYESRDLEYYSPITTKYKGSGMTLGDMASAALQYSDNGATNIIMERFLGGPEGMTKFMRSIGDNEFRLDRWELELNTAIPGDKRDTSTPKAVANSLNKLALGNVLNAKVKAIYQNWLKGNTTGDARIRASVPADWVVGDKTGSCGAYGTANDYAVIWPKNRAPLIVSIYTTRKSKDDKHSDKTIAEASRIAIQAID
- Km [13]: 280 µM
- kcat [13]: 1.5 s⁻¹
- Km [14]: 170 µM
- kcat [14]: 0.16 s⁻¹
- Km [15]: 2.2 µM
- kcat [15]: 8.8 s⁻¹
- Km [16]: 270 µM
- kcat [16]: 5.9 s⁻¹
- Km [17]: 400 µM
- kcat [17]: 1200 s⁻¹
- kcat/Km [18]: 5400 M⁻¹ s⁻¹
- kcat/Km [19]: 940 M⁻¹ s⁻¹
- kcat/Km [20]: 4e+06 M⁻¹ s⁻¹
- kcat/Km [21]: 22000 M⁻¹ s⁻¹
- kcat/Km [22]: 3e+06 M⁻¹ s⁻¹

B3: Beta-lactamase (Providencia stuartii), O69773 (protein)
chain: MDNSMKNIFRQGRLFIALSLAMTSISAFALTQQEVDDIIKPLMKQEQIPGMSVAISVNGKQAIYHYGVQSKQTQIPVSDRTLYEIGSLSKTFTATLATYAQIQGKLDFSQSVSHYLPELKGSAFDNVSVMNLATHTSGLSLFVPSDIKTNDQLMAYYQKWLPDNEVGQYRSYSNLGVGLLGIVTAKQLNMPFSQAMEKLMLPSLGLKHTYIHVPKSQEKYYAQGYNKQNQPVRLNLEILGPEAYGLKSNAKDLIRYLEINMQSIKVAKTWQEAIENTHTGVYLTDSFVQDMMWESYPWPVSLSQLLQGNRDDMALKPQKVELIKPAMAPEVRAYYNKTGSSNGFATYAIFIPEEKIAIVMLSNKWIPIPQRITATYQLLEKIER
- Km [23]: 780 µM
- kcat [23]: 3 s⁻¹
- Km [24]: 26 µM
- kcat [24]: 0.19 s⁻¹
- Km [25]: 14 µM
- kcat [25]: 3.3 s⁻¹
- Km [26]: 260 µM
- kcat [26]: 0.16 s⁻¹
- Km [27]: 920 µM
- kcat [27]: 530 s⁻¹
- kcat/Km [28]: 3800 M⁻¹ s⁻¹
- kcat/Km [29]: 7300 M⁻¹ s⁻¹
- kcat/Km [30]: 250000 M⁻¹ s⁻¹
- kcat/Km [31]: 620 M⁻¹ s⁻¹
- kcat/Km [32]: 580000 M⁻¹ s⁻¹
